PMC8119676, “Human ribonuclease 1 serves as a secretory ligand of ephrin A4 receptor and induces breast tumor initiation” (Nature Communications, 2021)

Key:
EphA4 (Homo sapiens) = EphA4 (Homo sapiens) (UniProt P54764); settings: cited from earlier work
endogenous EphA4 [1] = target: T1, endogenous EphA4 (human (endogenous in MCF7, BT-549, KPL4), UniProt P54764-1 20-986); test: cell-based or functional assay
endogenous EphA4 [2] = target: T1, endogenous EphA4; test: ELISA; saturation binding; EphA4 captured from BT-549 RIPA lysates on plates coated with EphA4 antibody; dilution series of recombinant hRNase 1 or ephrin-A5 in RIPA buffer overnight at 4 °C; biotin-conjugated detection antibodies; Kd estimated, Scatchard plot; settings: one partner purified

T1 sequence (P54764 20-986): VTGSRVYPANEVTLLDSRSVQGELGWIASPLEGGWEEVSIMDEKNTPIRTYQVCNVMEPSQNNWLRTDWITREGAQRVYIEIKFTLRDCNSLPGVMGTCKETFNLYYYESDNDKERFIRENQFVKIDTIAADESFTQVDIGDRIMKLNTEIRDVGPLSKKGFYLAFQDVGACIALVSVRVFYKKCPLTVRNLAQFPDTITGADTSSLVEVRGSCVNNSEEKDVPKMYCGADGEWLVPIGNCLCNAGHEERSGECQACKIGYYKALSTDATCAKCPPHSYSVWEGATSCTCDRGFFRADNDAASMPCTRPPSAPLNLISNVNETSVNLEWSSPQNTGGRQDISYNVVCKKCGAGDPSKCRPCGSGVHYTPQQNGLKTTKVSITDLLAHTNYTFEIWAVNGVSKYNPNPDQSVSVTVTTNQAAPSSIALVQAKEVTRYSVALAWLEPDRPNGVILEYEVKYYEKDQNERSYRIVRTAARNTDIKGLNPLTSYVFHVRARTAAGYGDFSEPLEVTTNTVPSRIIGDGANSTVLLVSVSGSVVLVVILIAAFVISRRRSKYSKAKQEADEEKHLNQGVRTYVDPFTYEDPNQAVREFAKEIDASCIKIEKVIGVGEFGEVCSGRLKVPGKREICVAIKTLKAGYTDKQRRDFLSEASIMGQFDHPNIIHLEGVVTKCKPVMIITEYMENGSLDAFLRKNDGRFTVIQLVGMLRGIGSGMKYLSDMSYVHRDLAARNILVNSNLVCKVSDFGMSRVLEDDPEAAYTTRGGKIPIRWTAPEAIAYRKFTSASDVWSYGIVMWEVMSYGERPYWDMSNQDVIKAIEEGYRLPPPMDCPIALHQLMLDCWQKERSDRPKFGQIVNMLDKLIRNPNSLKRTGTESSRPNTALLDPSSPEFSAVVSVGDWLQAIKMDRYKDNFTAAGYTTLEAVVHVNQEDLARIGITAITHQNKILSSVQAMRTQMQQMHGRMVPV
EphA4 (Homo sapiens), sequence (P54764 20-547): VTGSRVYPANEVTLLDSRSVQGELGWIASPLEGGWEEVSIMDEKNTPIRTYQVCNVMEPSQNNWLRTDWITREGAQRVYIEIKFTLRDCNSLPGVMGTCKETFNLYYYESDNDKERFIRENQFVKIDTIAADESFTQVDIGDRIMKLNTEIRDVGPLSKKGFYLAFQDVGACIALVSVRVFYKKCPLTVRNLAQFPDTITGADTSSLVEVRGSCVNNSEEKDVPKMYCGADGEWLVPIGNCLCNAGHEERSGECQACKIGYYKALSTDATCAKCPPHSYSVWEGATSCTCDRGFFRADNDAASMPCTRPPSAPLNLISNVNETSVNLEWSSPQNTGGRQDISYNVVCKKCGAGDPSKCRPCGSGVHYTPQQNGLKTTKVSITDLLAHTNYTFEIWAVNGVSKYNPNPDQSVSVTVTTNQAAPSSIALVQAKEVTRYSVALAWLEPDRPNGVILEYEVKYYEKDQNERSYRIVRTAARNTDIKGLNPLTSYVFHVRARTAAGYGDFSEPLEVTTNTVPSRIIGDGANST

EC50 of EphA4 phosphorylation (pY779-EphA4, WB) in BT-549 cells treated with hRNase 1 at various concentrations for 30 min (endogenous EphA4 [1]) [nM] | Kd (endogenous EphA4 [2]) [nM] | Molecule | Kd (EphA4 (Homo sapiens)) [nM]
– | – | Ephrin-A5 (from UniProt P52803) | < 10
9.85 | 92.4 | recombinant hRNase 1 protein purified from HEK293 cells (enzyme, human, UniProt P07998 29-156, looked up, N-linked glycosylation, heterogeneous (glycosylated and non-glycosylated bands; sites reported at Asn-34, Asn-76, Asn-88), human ribonuclease 1 (hRNase 1), bought recombinant protein; The ELISA methods say only 'recombinant hRNase 1'; also called human ribonuclease 1; source: bought: Sino Biological Inc. #13468-H08H, purified from HEK293 cells) KESRAKKFQRQHMDSDSSPSSSSTYCNQMMRRRNMTQGRCKPVNTFVHEPLVDVQNVCFQEKVTCKNGQGNCYKSNSSMHITDCRLTNGSRYPNCAYRTSPKERHIIVACEGSPYVPVHFDASVEDST | –
– | 5.6 | recombinant ephrin-A5 (ligand, UniProt P52803 21-203, looked up, ephrin-A5, recombinant; 5.6 nM is printed as equivalent to 0.15 μg/ml, which implies about 27 kDa) QDPGSKAVADRYAVYWNSSNPRFQRGDYHIDVCINDYLDVFCPHYEDSVPEDKTERYVLYMVNFDGYSACDHTSKGFKRWECNRPHSPNGPLKFSEKFQLFTPFSLGFEFRPGREYFYISSAIPDNGRRSCLKLKVFVRPTNSCMKTIGVHDRVFDVNDKVENSLEPADDTVHESAEPSRGEN | –
